Assay results as given in US20050043232A1.
Changes are numbered by the printed parent chain.

T1: myostatin pro peptide (wild type)
T1 sequence: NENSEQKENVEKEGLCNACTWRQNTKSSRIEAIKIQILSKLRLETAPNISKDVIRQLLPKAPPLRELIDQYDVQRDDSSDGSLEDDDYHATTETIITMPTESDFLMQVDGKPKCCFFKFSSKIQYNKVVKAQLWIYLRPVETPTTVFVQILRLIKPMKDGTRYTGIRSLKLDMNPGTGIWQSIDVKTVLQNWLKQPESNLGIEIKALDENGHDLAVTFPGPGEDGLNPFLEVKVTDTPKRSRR

T2: 20-mer D to A mutant peptide (SEQ ID NO:20)
T2 sequence: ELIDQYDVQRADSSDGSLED

T3: 20-mer R to Q mutant peptide (SEQ ID NO:19)
T3 sequence: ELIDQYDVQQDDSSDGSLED

T4: 20-mer wild type myostatin pro peptide peptide (SEQ ID NO:18)
T4 sequence: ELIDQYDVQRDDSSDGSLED

T5: 30-mer D to A mutant peptide (SEQ ID NO:17)
T5 sequence: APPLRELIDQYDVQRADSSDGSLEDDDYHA

T6: 30-mer R to Q mutant peptide (SEQ ID NO:16)
T6 sequence: T5 sequence with R15Q, A16D

T7: 30-mer wild type myostatin pro peptide peptide (SEQ ID NO:15)
T7 sequence: T5 sequence with A16D

T8: 40-mer D to A mutant peptide (SEQ ID NO:14)
T8 sequence: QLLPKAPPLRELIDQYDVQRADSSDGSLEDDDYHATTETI

T9: 40-mer R to Q mutant peptide (SEQ ID NO:13)
T9 sequence: T8 sequence with R20Q, A21D

T10: 40-mer wild type myostatin pro peptide peptide (SEQ ID NO:12)
T10 sequence: T8 sequence with A21D

T11: myostatin pro peptide (wild type) (Homo sapiens (Human)) (UniProt O14793)
T11 sequence: T1 sequence

B1: mammalian Tolloid-like-2 (mTLL-2) (enzyme, UniProt Q9WVM6 147-1012, looked up, species assumed)
Tolloid-like protein 2: ATTSRTERIWPGGVIPYVIGGNFTGTQRAIFKQAMRHWEKHTCVTFVERTDEESFIVFSYRTCGCCSYVGRRGGGPQAISIGKNCDKFGIVAHELGHVVGFWHEHTRPDRDQHVTIIRENIQPGQEYNFLKMEAGEVSSLGETYDFDSIMHYARNTFSRGVFLDTILPRRDDNGVRPTIGQRVRLSQGDIAQARKLYKCPACGETLQDTTGNFSAPGFPNGYPSYSHCVWRISVTPGEKIILNFTSMDLFKSRLCWYDYVEIRDGYWRKAPLLGRFCGDKIPESLVSSDSRLWVEFRSSSSSLGKGFFAVYEAMCGGDITKDAGQIQSPNYPDDYRPSKECVWRITVPDGFHVGLTFQSFEIERHDSCAYDYLEIRDGPTEDSTLIGHFCGYEKPEAVKSSANRLWVKFVSDGSINKAGFAANFFKEVDECSWPDHGGCEQRCVNTLGSYTCACDPGYELAADKKTCEVACGGFITKLNGTITSPGWPKEYPTNKNCVWQVVAPVQYRISLQFEAFELEGNDVCKYDFVEVRSGLSPDAKLHGKFCGSETPEVITSQSNNMRVEFKSDNTVSKRGFRAHFFSDKDECAKDNGGCQQECVNTFGSYLCRCRNGYRLHENGHDCKEAGCAYKISSAEGTLMSPNWPDKYPSRKECTWNISSTAGHRVKITFSEFEIEQHQECAYDHLELYDGTDSLAPILGRFCGSKKPDPVVATGSSLFLRFYSDASVQRKGFQAVHSTECGGRLKAEVQTKELYSHAQFGDNNYPSQARCDWVIVAEDGYGVELIFRTFEVEEEADCGYDFMEAYDGYDSSAPRLGRFCGSGPLEEIYSAGDSLMIRFHTDDTINKKGFHARYTSTKFQDALHMRK
B2: bone morphogenic protein-1 (BMP-1) (enzyme, UniProt P13497 121-986, looked up, species assumed)
Bone morphogenetic protein 1: AATSRPERVWPDGVIPFVIGGNFTGSQRAVFRQAMRHWEKHTCVTFLERTDEDSYIVFTYRPCGCCSYVGRRGGGPQAISIGKNCDKFGIVVHELGHVVGFWHEHTRPDRDRHVSIVRENIQPGQEYNFLKMEPQEVESLGETYDFDSIMHYARNTFSRGIFLDTIVPKYEVNGVKPPIGQRTRLSKGDIAQARKLYKCPACGETLQDSTGNFSSPEYPNGYSAHMHCVWRISVTPGEKIILNFTSLDLYRSRLCWYDYVEVRDGFWRKAPLRGRFCGSKLPEPIVSTDSRLWVEFRSSSNWVGKGFFAVYEAICGGDVKKDYGHIQSPNYPDDYRPSKVCIWRIQVSEGFHVGLTFQSFEIERHDSCAYDYLEVRDGHSESSTLIGRYCGYEKPDDIKSTSSRLWLKFVSDGSINKAGFAVNFFKEVDECSRPNRGGCEQRCLNTLGSYKCSCDPGYELAPDKRRCEAACGGFLTKLNGSITSPGWPKEYPPNKNCIWQLVAPTQYRISLQFDFFETEGNDVCKYDFVEVRSGLTADSKLHGKFCGSEKPEVITSQYNNMRVEFKSDNTVSKKGFKAHFFSDKDECSKDNGGCQQDCVNTFGSYECQCRSGFVLHDNKHDCKEAGCDHKVTSTSGTITSPNWPDKYPSKKECTWAISSTPGHRVKLTFMEMDIESQPECAYDHLEVFDGRDAKAPVLGRFCGSKKPEPVLATGSRMFLRFYSDNSVQRKGFQASHATECGGQVRADVKTKDLYSHAQFGDNNYPGGVDCEWVIVAEEGYGVELVFQTFEVEEETDCGYDYMELFDGYDSTAPRLGRYCGSGPPEEVYSAGDSVLVKFHSDDTITKKGFHLRYTSTKFQDTLHSRK
B3: mammalian Tolloid-like-1 (mTLL-1) (enzyme, UniProt Q62381 148-1013, looked up, species assumed)
Tolloid-like protein 1: AATSRTERIWPGGVIPYVIGGNFTGSQRAMFKQAMRHWEKHTCVTFTERSDEESYIVFTYRPCGCCSYVGRRGNGPQAISIGKNCDKFGIVVHELGHVIGFWHEHTRPDRDNHVTIIRENIQPGQEYNFLKMEPGEVNSLGERYDFDSIMHYARNTFSRGMFLDTILPSRDDNGIRPAIGQRTRLSKGDIAQARKLYRCPACGETLQESSGNLSSPGFPNGYPSYTHCIWRVSVTPGEKIVLNFTTMDLYKSSLCWYDYIEVRDGYWRKSPLLGRFCGDKVAGVLTSTDSRMWIEFRSSSNWVGKGFAAVYEAICGGEIRKNEGQIQSPNYPDDYRPMKECVWKIMVSEGYHVGLTFQAFEIERHDSCAYDHLEVRDGASENSPLIGRFCGYDKPEDIRSTSNTLWMKFVSDGTVNKAGFAANFFKEEDECAKPDRGGCEQRCLNTLGSYQCACEPGYELGPDRRSCEAACGGLLTKLNGTITTPGWPKEYPPNKNCVWQVIAPSQYRISVKFEFFELEGNEVCKYDYVEIWSGPSSESKLHGKFCGADIPEVMTSHFNNMRIEFKSDNTVSKKGFKAHFFSDKDECSKDNGGCQHECVNTMGSYTCQCRNGFVLHENKHDCKEAECEQKIHSPSGLITSPNWPDKYPSRKECTWVISAIPGHRITLAFNEFEVEQHQECAYDHLEIFDGETEKSPILGRLCGSKIPDPLMATGNEMFIRFISDASVQRKGFQATHSTECGGRLKAESKPRDLYSHAQFGDNNYPGQLDCEWLLVSERGSRLELSFQTFEVEEEADCGYDYVEVFDGLSSKAVGLGRFCGSGPPEEIYSIGDVALIHFHTDDTINKKGFYIRYKSIRYPETMHAKN

Columns and labels:
[1] = tested on: T1, myostatin pro peptide (wild type)
[2] = tested on: T2, 20-mer D to A mutant peptide (SEQ ID NO:20)
[3] = tested on: T3, 20-mer R to Q mutant peptide (SEQ ID NO:19)
[4] = tested on: T4, 20-mer wild type myostatin pro peptide peptide (SEQ ID NO:18)
[5] = tested on: T5, 30-mer D to A mutant peptide (SEQ ID NO:17)
[6] = tested on: T6, 30-mer R to Q mutant peptide (SEQ ID NO:16)
[7] = tested on: T7, 30-mer wild type myostatin pro peptide peptide (SEQ ID NO:15)
[8] = tested on: T8, 40-mer D to A mutant peptide (SEQ ID NO:14)
[9] = tested on: T9, 40-mer R to Q mutant peptide (SEQ ID NO:13)
[10] = tested on: T10, 40-mer wild type myostatin pro peptide peptide (SEQ ID NO:12)
[11] = molecular target: T11, myostatin pro peptide (wild type) (Homo sapiens (Human)); experiment: cell-based or functional assay

| fraction of proteolytically-cleaved myostatin complex active in the luciferase reporter assay (against a standard curve of C-terminal dimer) [11] [%] | Molecule | partial proteolytic cleavage of pro peptide in the latent complex, western blot (FIG. 3E; 1 µg complex, 250 ng proteinase, 16 hours 37° C.) [1] | proteolytic cleavage of free pro peptide (purified away from the C-terminal dimer) [1] | proteolytic cleavage of pro peptide, SDS-PAGE and western blot (500 ng substrate, 100 ng protease, overnight 37° C.; free pro peptide and latent complex) [1] | cleavage of synthetic peptide by conditioned medium containing TLL-2, C18 HPLC and mass spectrometry [2] | cleavage of synthetic peptide by conditioned medium containing TLL-2, C18 HPLC and mass spectrometry [3] | cleavage of synthetic peptide by conditioned medium containing TLL-2, C18 HPLC and mass spectrometry [4] | cleavage of synthetic peptide by conditioned medium containing TLL-2, C18 HPLC and mass spectrometry [5] | cleavage of synthetic peptide by conditioned medium containing TLL-2, C18 HPLC and mass spectrometry [6] | cleavage of synthetic peptide by conditioned medium containing TLL-2, C18 HPLC and mass spectrometry [7] | cleavage of synthetic peptide by conditioned medium containing TLL-2, C18 HPLC and mass spectrometry [8] | cleavage of synthetic peptide by conditioned medium containing TLL-2, C18 HPLC and mass spectrometry [9] | cleavage of synthetic peptide by conditioned medium containing TLL-2, C18 HPLC and mass spectrometry [10] | proteolytic cleavage of pro peptide in the purified latent complex, SDS-PAGE and western blot (FIG. 3D) [1] |
| --- | --- | --- | --- | --- | --- | --- | --- | --- | --- | --- | --- | --- | --- | --- |
| – | mammalian Tolloid (mTLD) | mTLD was consistently less active than the other three | All four of these proteinases also cleaved pro peptide that had been purified away from the C-terminal dimer | each of the proteases cleaved the pro peptide whether it was in a purified form or in a complex with the myostatin C-terminal dimer | – | – | – | – | – | – | – | – | – | – |
| – | B1 | Three of the proteinases, BMP-1, mTLL-1, and mTLL-2, were approximately equally effective in cleaving the pro peptide | All four of these proteinases also cleaved pro peptide that had been purified away from the C-terminal dimer | each of the proteases cleaved the pro peptide whether it was in a purified form or in a complex with the myostatin C-terminal dimer | the peptides containing the D→A mutation at the P1′ position were not cleaved | The 40-mer, 30-mer, and 20-mer wild type and R→Q mutant peptides were cleaved by conditioned media containing TLL-2 | The 40-mer, 30-mer, and 20-mer wild type and R→Q mutant peptides were cleaved by conditioned media containing TLL-2 | the peptides containing the D→A mutation at the P1′ position were not cleaved | The 40-mer, 30-mer, and 20-mer wild type and R→Q mutant peptides were cleaved by conditioned media containing TLL-2 | The 40-mer, 30-mer, and 20-mer wild type and R→Q mutant peptides were cleaved by conditioned media containing TLL-2 | the peptides containing the D→A mutation at the P1′ position were not cleaved | The 40-mer, 30-mer, and 20-mer wild type and R→Q mutant peptides were cleaved by conditioned media containing TLL-2 | The 40-mer, 30-mer, and 20-mer wild type and R→Q mutant peptides were cleaved by conditioned media containing TLL-2 | – |
| – | B2 | Three of the proteinases, BMP-1, mTLL-1, and mTLL-2, were approximately equally effective in cleaving the pro peptide | All four of these proteinases also cleaved pro peptide that had been purified away from the C-terminal dimer | each of the proteases cleaved the pro peptide whether it was in a purified form or in a complex with the myostatin C-terminal dimer | – | – | – | – | – | – | – | – | – | incubation of the purified latent complex with purified BMP-1 resulted in complete cleavage of the pro peptide to generate a single product |
| > 50 | B3 | Three of the proteinases, BMP-1, mTLL-1, and mTLL-2, were approximately equally effective in cleaving the pro peptide | All four of these proteinases also cleaved pro peptide that had been purified away from the C-terminal dimer | each of the proteases cleaved the pro peptide whether it was in a purified form or in a complex with the myostatin C-terminal dimer | – | – | – | – | – | – | – | – | – | – |
